The domain aggregation screens of Martell et al. (2025)

Test: soluble fraction after stress (log2 fold change); higher = more stays soluble; pooled small domains, quantitative proteomics
Settings: stress: 75 degC
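Also: 20 min heating vs room temperature control held 20 min.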

Row | Sequence | soluble fraction (log2)
1 | HMSMPEVLSDRELEIFRMIGTGMSTGDIAKKLNISVNTIESHRKKIKDKLGIQKGSELVKAAVQWVSTQQ | -0.741
2 | HMSMSVLFSELDQKDAGVIVEKLKERKIPYELQSGGSAIMVPANVLHETRLQLAAEGLPQSS | -0.0383
3 | HMSMTVHGALRLLQLPTIADRPYTLKEIREAYREQAQNHHPDAGGSADAMRRLNEAYQFLKERYRQA | -0.449
4 | HMSNEKVVKFAQELLVDEERSAISPALISAKIDQVLMFKPAWNEGLDRDAVVNELVRRFSIW | -1.24
5 | HMSNGFFELKTSQQDELIDLIDSHTNFVRTKIEGELITAFLKLPMDAEEFNKLLFTNGIILSHLVKRK | -0.713
6 | HMSNIIGNTAYSAIPDKQYFRLKSETAEKVANYLTENNIPFSGRINGDKTTLTIGQKNVDDYKAAVATVTG | 0.0528
7 | HMSNIVNYEVYVYQNDAWDLLARYPSEKRAEAIEYAKSTEFSLNRPTKVIRETYDLDTQKFQEALIYLSE | -0.743
8 | HMSNLNHSFQYKKNIGRKISLTYLGRDNESISKIYELIDSNDSGILVKNKNVEIFIHYEKIVSAKIKVS | -1.78
9 | HMSNLTDLVSAKEAEVYLHFLESGSTAGMTEAELRAVRKIEELIQSNKIDYNGILRIRNETVK | 0.0216
10 | HMSNNLAYSQFLDRVKNKEIRKVEIRGQSIVGYTSNNETFKTYAPLNDPKMYDELLTNDVQVQVDPP | -0.0765
11 | HMSNQLAVPDVTNMKANAAADRLRQQGLRVELKTESSNTVPRGMAIRTDPAASTMVARGGRVTLIISSGKG | -0.248
12 | HMSNSGFVKNNGKTEFYDASGRQAKSSWINISGKWYYFDLNGTMVTGWQRISNKWYYFLEDGSK | -0.0724
13 | HMSNSMISKDKAMSIALAKVSGATSSNIYIELEKDDGRYTYEGEINFNNKEYEFEIDAYTGNILKWEVDSI | -0.806
14 | HMSNTPHSREVLLEMDAVRRLLAVGEEKGEVDRADLQGAFEEAELGRGDLDGVLSILREYDVPLAR | 0.0604
15 | HMSNVIYFNYNDYKFLFMGDAGVDKETDILEKYTLSNIDFLKVGHHGSDTSSNKGFIDSIQPKYSLIS | -1.53
16 | HMSNWTILIIQGSAHLIDLDSKITEIDGFGSFPTKILQDYNLNEEFEIFDTNVKMVNSVQSDLQSN | -2.48
17 | HMSNYIVELSSSEKIDDIDNNNNLINSFFSKSDSQWEYKLVFKNKNEMDVFVKKISTNNKIISYKTSS | -1.17
18 | HMSPAETGIYHILVENGKPNRHGLDATNKNENWLRQFLITQNTRLEDVFLLLADDGGGIRFFKSQ | -1.26

Row | Sequence | soluble fraction (log2)
19 | HMSPAPVSVDHLAFPTRDLEATDHFYSKVVGATLVHAESGYSPSWKSDYLLITYALPDGTRLSFFDWP | 0.105
20 | HMSPDTREAILAAARTAFARDGYQTSLRGIARDAGVDPALVHHYFPDRATLFAKAVIESTAG | -0.0532
21 | HMSPFAHHLHELRMRHGIRQNELAELIGYDQTYISALEVGLKGPPTPEFVDKLVEGLALSRTEEAALRSAA | -0.483
22 | HMSPFYALDEVDSFLDGVNVERLAALIARQAEQAQFLVVSHRRPMIGASTRTIGVTQARGAHTQVVGLP | -0.312
23 | HMSPGAKIEVTGNTVNLRAGPGTNYDTRGQVKKGEQLPLLGEQGGWYRVQTSRGVAYLAGWLARVLT | -1.43
24 | HMSPLDSHLGRRIALRRQQLNTSAADLEKAISMVPGSVARFEAGRQSLNATQLFTLSRALDVPVLYFFEG | -0.705
25 | HMSPREDQQSRKQHILEAAAVLFAERGYYKTTTADVARAVGVTQPYVFHFFKSKEELYLAVL | 0.163
26 | HMSPSDLSAEAQKVYALLDGRELSFDTLVEESGFDTGSLLAILMRLEMKMLVEHGADQVYRRSG | -1.51
27 | HMSPVKAPLPGVVLDIHVSVGQEVKASDTVVTLEAMKMENAIKAGVDGKVASISVGKGDSVLEGAVLLTI | -0.0893
28 | HMSQAVTMLKAGRLLANSKGTGAAVRDLEPGMLLYPTGQKDGTMWEVEDEMGNKGWVNSTSMQLA | 0.271
29 | HMSQDEKITNYIYEGNKNTQTEAFVEAEKSYRKALSLSPEKPEALYNLGNTHFLDKQYDEASQRFF | 0.0479
30 | HMSQDINVFIKTNPENATIIWDGESKGTNGIFKSNAGAHRLRIEMQGYESIDQDIQVSDKQFSFEYNLKKE | 0.138
31 | HMSQIANLLLSKNIKVNNQNIIYYETVLKYLPNNEKKEFFINAMKNNIYFTEEEIKNFGNIFN | -2.74
32 | HMSQIQIKLDQAIMQLPEKQRFVFMLRYFEELPYEKIAQITETSIGGAKANFHQALKKMQEIIQ | -2.96
33 | HMSQKVQEDFLGDIRKNEIAVTVFLINGVKLQGVITWFDDASILLRRDGHTQLIYKHAVSTIMPGVAVDI | -0.582
34 | HMSQLYINATDDGWVIGNLPADAREVLLTTLGGQVVARYHVTAPSLRVKAPRKGVYIVSVETA | -2.11
35 | HMSQQVVTDGVNLRLRYAPSPDAETYKWADGTNRHPEKGERFPYLGDIGDFYRIDYKGLVLYVSKQHTHL | -2.04
